Laboratory results reported in US9926375B2, “Anti-endoglin antibodies and uses thereof” (Tracon Pharmaceuticals, Inc., priority 2014, dated 2018).
Where a chain is given by its changes, count along the chain named. Each block holds one molecule with its values, some of them ahead of it.

Tests used:
[1] = molecular target: T1, human CD105 (Homo sapiens, UniProt P17813); test: Competition ELISA against biotinylated TRC205 antibody for binding to human CD105; settings: biotinylated TRC205 55 ng/ml
T1 construct: purchased R&D Systems 1097-EN
T1 sequence (P17813 26-586 limits assumed): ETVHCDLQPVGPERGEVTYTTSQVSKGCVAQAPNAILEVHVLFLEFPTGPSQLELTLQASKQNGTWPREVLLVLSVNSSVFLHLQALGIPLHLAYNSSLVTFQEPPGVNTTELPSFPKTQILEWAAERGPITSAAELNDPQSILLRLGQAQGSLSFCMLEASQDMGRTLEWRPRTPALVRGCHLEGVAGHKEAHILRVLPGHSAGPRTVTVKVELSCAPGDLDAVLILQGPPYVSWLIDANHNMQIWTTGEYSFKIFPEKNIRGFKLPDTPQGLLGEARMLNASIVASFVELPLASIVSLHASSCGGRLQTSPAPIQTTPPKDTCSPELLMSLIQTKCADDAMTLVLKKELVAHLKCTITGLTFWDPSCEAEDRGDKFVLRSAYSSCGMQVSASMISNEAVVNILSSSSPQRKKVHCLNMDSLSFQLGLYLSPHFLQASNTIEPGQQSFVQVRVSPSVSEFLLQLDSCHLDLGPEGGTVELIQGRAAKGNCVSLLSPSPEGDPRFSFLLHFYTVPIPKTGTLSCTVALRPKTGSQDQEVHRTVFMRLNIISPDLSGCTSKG
Description: After washing three times with PBST, a three-fold dilution series of either human BMP9 (R&D Systems Cat. No. 3209-BP-010) (413 nM to 0.56 nM), or unlabelled TRC205 antibody (40 nM to 0.05 nM) or a single concentration of an irrelevant antibody (66 nM) was mixed with a fixed concentration of biotinylated TRC205 antibody (55 ng/ml) and added to the plate. Following incubation for 1 hour at room temperature, the plate was washed three times with PBST and binding of the biotinylated TRC205 antibody was detected using streptavidin-HRP (Sigma Cat. No. 55512) and TMB substrate (Sigma Cat. No. T0440). OD450 nm values were measured on a Dynex MRX TCII plate reader.

[2] = test system: peripheral blood mononuclear cells (PBMCs); test: EpiScreen time course T cell proliferation assay with intact anti-endoglin antibodies; type: cell-based, human; settings: for Donors with positive T cell proliferation responses: of 20 donors, SI≥2 (borderline ≥1.90), p<0.05
Source text: This example describes a method of screening anti-endoglin antibodies for T-cell epitopes. The interaction between MHC, polypeptide and T cell receptor (TCR) provides the structural basis for the antigen specificity of T cell recognition. T cell proliferation assays test the binding of polypeptides processed from antibodies to MHC and the recognition of MHC/polypeptide complexes by the TCR. In vitro T cell proliferation assays of the present example, involve the stimulation of peripheral blood mononuclear cells (PBMCs), containing antigen presenting cells (APCs) and T cells. Stimulation is conducted in vitro using intact anti-endoglin antibodies. Stimulated T cell proliferation is measured using ^3H-thymidine (^3H-Thy) and the presence of incorporated ^3H-Thymidine is assessed using scintillation counting of washed fixed cells.
Anti-endoglin antibodies were purified from the supernatants of mammalian cultures by protein A chromatography. Buffer exchange and protein concentration was done using PBS pH=7.4. Anti-endoglin antibody was further purified by size exclusion chromatography using a Sephacryl S200 column (GE Healthcare, AMersham, UK). The major peak is collected, filter sterilized and shown to have endotoxin levels <5 EU/mg using an Endosafe-PTS (Charles River, Margate, UK). The purified antibodies are stored at 4 degrees Celsius. Final concentrations were determined by UV absorption using calculated molar extinction coefficients, where A280 1.0=1.62 mg/mL. Each antibody was then diluted to 100 μg/mL in AIMV culture medium.
Peripheral Blood Mononuclear cells (PBMC) are isolated from healthy community donor buffy coats (from blood drawn within 24 hours) which are obtained from the UK National Blood Transfusion Service (Addenbrooke's Hospital, Cambridge, UK) according to approval granted by Addenbrooke's Hospital Local Research Ethics Committee. PBMC are isolated from buffy coats by Lymphoprep (Axis-shield, Dundee, Scotland) density centrifugation and CD8+ T cells are depleted using CD8+ RossetteSep™ (StemCell Technologies, Inc.). Donors are characterized by identifying HLA-DR haplotypes using a Biotest HLA SSP-PCR based tissue-typing kit (Biotest, Landsteinerstralβe, […]). T cell responses to a control antigen, Keyhole Limpet Haemocyanin (KLH) (Pierce, Rockford, Ill., USA) are determined for a positive control. PBMC were then frozen and stored in liquid nitrogen until required. When required for use, cells are thawed rapidly in a water bath at 37° C. before transferring to 10 ml pre-warmed AIM V medium.
A cohort of 20 donors is selected to best represent the number and frequency of HLA-DR allotypes expressed in the world population. […]
PBMCs from each donor are thawed, counted and viability assessed. […]

[3] = molecular target: T2, human endoglin (Homo sapiens, UniProt P17813); test: BIAcore (surface plasmon resonance) analysis of anti-endoglin antibody binding; settings: antibody captured on protein A chip, 25 degrees Celsius
T2 sequence (P17813 26-658): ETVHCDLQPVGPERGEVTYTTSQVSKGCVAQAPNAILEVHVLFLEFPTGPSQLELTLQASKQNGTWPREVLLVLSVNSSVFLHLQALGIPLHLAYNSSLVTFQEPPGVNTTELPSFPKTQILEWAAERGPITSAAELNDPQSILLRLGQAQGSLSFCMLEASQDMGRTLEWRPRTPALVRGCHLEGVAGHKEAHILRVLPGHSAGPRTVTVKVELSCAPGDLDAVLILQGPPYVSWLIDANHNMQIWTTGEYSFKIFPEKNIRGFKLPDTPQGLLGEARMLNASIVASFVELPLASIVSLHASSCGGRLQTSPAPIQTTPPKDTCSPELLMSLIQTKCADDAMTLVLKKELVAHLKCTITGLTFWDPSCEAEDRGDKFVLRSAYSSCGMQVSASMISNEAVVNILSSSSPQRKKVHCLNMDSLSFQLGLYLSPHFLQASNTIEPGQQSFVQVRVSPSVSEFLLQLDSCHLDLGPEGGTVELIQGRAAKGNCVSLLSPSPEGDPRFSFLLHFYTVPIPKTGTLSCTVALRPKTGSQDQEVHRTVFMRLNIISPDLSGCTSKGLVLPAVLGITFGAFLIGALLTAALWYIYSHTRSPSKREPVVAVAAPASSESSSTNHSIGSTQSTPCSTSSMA
Description: Affinity of antibodies can be assessed using, for example, BIAcore analysis using standard protocols. Briefly, protein A is chemically coupled to a BIAcore CM5 chip, with the amount of protein A immobilized corresponding to 2000 RU. Subsequent steps are performed in a running buffer of 10 mM HEPES, 150 mM NaCl, 3 mM EDTA, 0.05% TWEEN, pH=7.4, at 25 degrees Celsius using a 10 Hz data collection rate. Anti-endoglin antibody (10 nM) is captured at a 10 μL/min flow rate by the immobilized protein A on the BIAcore chip: typically, capture times of 20, 40 and 80 seconds allow the capture of antibody densities corresponding to 130 RU, 330 RU and 570 RU, respectively. Start-up cycles are performed using running buffer at a flow rate of 40 μL/min, a contact time of 90 seconds and a dissociation time of 90 seconds. Sample cycles are performed using recombinant endoglin at concentrations ranging from 0 to 40 nM. Endoglin is passed over the BIAcore chip containing captured antibody at a flow rate of 40 μL/min with a contact time of 525 seconds and dissociation time of 2500 seconds. Eight sample cycles are typically performed at each antibody capture density. Regeneration of the chip is accomplished using 10 mM glycine pH=1.7. Data analysis is performed using BIAcore T100 Evaluation Software v1.1 Signals generated using BIAcore chips with different captured antibody densities are compared and data generated in the absence of recombinant endoglin are used to adjust for the intraassay blank signal. For fitting of the data, the Rmax is allowed to float to account for variation in capture levels of each antibody in each cycle. Data from each capture density is fitted simultaneously during analysis of each antibody. BIAcore data are presented in Table 2 for chimeric, humanized and deimmunized anti-endoglin antibodies, including ka (1/Ms), kd (1/s), KD (M) and Chi^2 (RU^2).

B1: VK1VH1: humanized anti-endoglin antibody (antibody, V domains shown)
VH: EVQLVESGGGLVKPGGSLRLSCAASGFTFSDAWMDWVRQAPGKGLEWVGEIRSKASNHATYYAESVKGRFTISRDDSKNTLYLQMNSLKTEDTAVYYCTRWRRFFDSWGQGTLVTVSS
VL: DIQMTQSPSSLSASVGDRVTITCRASSSVSYMHWYQQKPGKAPKPWIYATSNLASGVPSRFSGSGSGTDYTLTISSLQPEDFATYYCQQWSSNPLTFGGGTKVEIK
Responding donors, % of the study cohort ([2]; cohort of 20 donors, 50 μg/mL antibody): 10% | Stimulation index (borderline response) ([2]; donor 20): 1.91 | Donors with positive T cell proliferation responses ([2]; 50 μg/mL antibody): 2

B2: VK1AAVH1A2: humanized/deimmunized anti-endoglin IgG1; light chain SEQ ID NO: 93 (VK1AA), heavy chain SEQ ID NO: 89 (VH1A2) (antibody, V domains shown)
VH: B1 VH with I51A
VL: B1 VL with V19A, I47A
ka [3]: 46000 M⁻¹ s⁻¹ | kd [3]: 3.25e-05 s⁻¹ | Donors with positive T cell proliferation responses ([2]; 50 μg/mL antibody): none of the donors in the study cohort responded positively

Now from value to molecule:

IC50 of competition with biotinylated TRC205 antibody [1]: 0.35 µg/mL
Molecule: BMP9: human BMP9 (R&D Systems Cat. No. 3209-BP-010), endoglin ligand [reference compound]

ka [3]: 64000 M⁻¹ s⁻¹ | kd [3]: 3.41e-05 s⁻¹
B3: VK1AAVH1R: humanized/deimmunized anti-endoglin antibody (antibody, V domains shown)
VH: B1 VH with K54R
VL: B1 VL with V19A, I47A

ka [3]: 35600 M⁻¹ s⁻¹ | kd [3]: 3.03e-05 s⁻¹
B4: VK1AAVH1Q: humanized/deimmunized anti-endoglin antibody (antibody, V domains shown)
VH: B1 VH with K54Q
VL: B1 VL with V19A, I47A
